Results from US20090104231A1.

Key:
[1] = target: NS3 CD4 peptide … presented by MHC of C57B1 mice (Hepatitis C virus)
[2] = target: NS3 CD8 peptide … presented by MHC of C57B1 mice (Hepatitis C virus)
[3] = target: NS3 CD4 peptide … presented by MHC of C57B1 mice (Hepatitis C virus); remark: listed apart in the source
[4] = target: NS3 CD8 peptide … presented by MHC of C57B1 mice (Hepatitis C virus); remark: listed apart in the source
[5] = target: purified HCV NS3 protein (genotype 1b) from Mikrogen (Hepatitis C virus genotype 1b)
[6] = target: NS3 CD4 peptide … presented by MHC of C57B1 mice (Hepatitis C virus); remark: listed apart in the source
[7] = target: NS3 CD8 peptide … presented by MHC of C57B1 mice (Hepatitis C virus); remark: listed apart in the source
[8] = target: NS4B CD4 peptide … presented by MHC of Balb/c mice (Hepatitis C virus)
[9] = target: NS4B CD8 peptide … presented by MHC of Balb/c mice (Hepatitis C virus)
[10] = target: purified HCV NS4 protein (genotype 1b) from Mikrogen (Hepatitis C virus genotype 1b)
[11] = target: NS5B CD8 peptide … presented by MHC of C57BL/6 mice (Hepatitis C virus)
[12] = target: purified HCV NS5B protein (genotype 1b) from Mikrogen (Hepatitis C virus genotype 1b)
[13] = target: NS5B CD4 peptide … presented by MHC of C57BL/6 mice (Hepatitis C virus)

T cells of C57BL mice immunised with gold beads co-coated with p7313ieNS3, p7313ieNS5B and p7313ieCore151 (cells without a defined receptor)
intracellular cytokine staining of IFNγ and IL2 (fold over the Core 191 group) [1]: 2 | intracellular cytokine staining of IFNγ and IL2 (fold over the Core 191 group) [2]: 2

T cells of C57BL mice immunised with gold beads co-coated with p7313ieNS3/NS4B/NS5B triple fusion together with core 151 (cells without a defined receptor)
intracellular cytokine staining (fold over the Core 191 group) [3]: 2 | intracellular cytokine staining (fold over the Core 191 group) [4]: 2

splenocytes of C57BL mice immunised with DNA encoding NS3 alone (cells without a defined receptor)
IFNγ-producing T cells, intracellular cytokine staining (frequency (unit not given)) [5]: 0.29 | IFNγ-producing T cells, intracellular cytokine staining (frequency (unit not given)) [6]: 0.24 | IFNγ-producing T cells, intracellular cytokine staining (% of CD8+ cells (unit from paragraph 162)) [7]: 4.4

splenocytes of C57BL mice immunised with DNA encoding polyprotein HCV 500 (Core-NS3-NS4B-NS5B) (cells without a defined receptor)
IFNγ-producing T cells, intracellular cytokine staining (frequency (unit not given)) [5]: 0.27 | IFNγ-producing T cells, intracellular cytokine staining (frequency (unit not given)) [6]: 0.38 | IFNγ-producing T cells, intracellular cytokine staining (% of CD8+ cells (unit from paragraph 162)) [7]: 5.54 | IFNγ-producing T cells, intracellular cytokine staining (frequency (unit not given)) [8]: 0.1 | IFNγ-producing T cells, intracellular cytokine staining (frequency (unit not given)) [9]: 0.6 | IFNγ-producing T cells, intracellular cytokine staining (frequency (unit not given)) [10]: 0.09 | IFNγ-producing T cells, intracellular cytokine staining (frequency (unit not given)) [11]: 0.35 | IFNγ-producing T cells, intracellular cytokine staining (frequency (unit not given)) [12]: 0.14 | IFNγ-producing T cells, intracellular cytokine staining (frequency (unit not given)) [13]: 0.43

splenocytes of C57BL mice immunised with DNA encoding polyprotein HCV 501 (Core (66-191)-(1-65)-NS3-NS4B-NS5B) (cells without a defined receptor)
IFNγ-producing T cells, intracellular cytokine staining (frequency (unit not given)) [5]: 0.05 | IFNγ-producing T cells, intracellular cytokine staining (frequency (unit not given)) [6]: 0.08 | IFNγ-producing T cells, intracellular cytokine staining (frequency (unit not given)) [7]: 0.16 | IFNγ-producing T cells, intracellular cytokine staining (frequency (unit not given)) [8]: 0.06 | IFNγ-producing T cells, intracellular cytokine staining (frequency (unit not given)) [9]: 0.13 | IFNγ-producing T cells, intracellular cytokine staining (frequency (unit not given)) [10]: 0.09 | IFNγ-producing T cells, intracellular cytokine staining (frequency (unit not given)) [11]: 0.09 | IFNγ-producing T cells, intracellular cytokine staining (frequency (unit not given)) [12]: 0.03 | IFNγ-producing T cells, intracellular cytokine staining (frequency (unit not given)) [13]: 0.13

splenocytes of C57BL mice immunised with DNA encoding polyprotein HCV 510 (NS3-NS4B-NS5B-Core) (cells without a defined receptor)
IFNγ-producing T cells, intracellular cytokine staining (frequency (unit not given)) [5]: 0.17 | IFNγ-producing T cells, intracellular cytokine staining (frequency (unit not given)) [6]: 0.29 | IFNγ-producing T cells, intracellular cytokine staining (% of CD8+ cells (unit from paragraph 162)) [7]: 3.95 | IFNγ-producing T cells, intracellular cytokine staining (frequency (unit not given)) [8]: 0.09 | IFNγ-producing T cells, intracellular cytokine staining (frequency (unit not given)) [9]: 0.34 | IFNγ-producing T cells, intracellular cytokine staining (frequency (unit not given)) [10]: 0.09 | IFNγ-producing T cells, intracellular cytokine staining (frequency (unit not given)) [11]: 0.11 | IFNγ-producing T cells, intracellular cytokine staining (frequency (unit not given)) [12]: 0.1 | IFNγ-producing T cells, intracellular cytokine staining (frequency (unit not given)) [13]: 0.29

splenocytes of C57BL mice immunised with DNA encoding polyprotein HCV 520 (NS4B-NS5B-Core-NS3) (cells without a defined receptor)
IFNγ-producing T cells, intracellular cytokine staining (frequency (unit not given)) [5]: 0.14 | IFNγ-producing T cells, intracellular cytokine staining (frequency (unit not given)) [6]: 0.28 | IFNγ-producing T cells, intracellular cytokine staining (% of CD8+ cells (unit from paragraph 162)) [7]: 3.32 | IFNγ-producing T cells, intracellular cytokine staining (frequency (unit not given)) [8]: 0.05 | IFNγ-producing T cells, intracellular cytokine staining (frequency (unit not given)) [9]: 0.33 | IFNγ-producing T cells, intracellular cytokine staining (frequency (unit not given)) [10]: 0.08 | IFNγ-producing T cells, intracellular cytokine staining (frequency (unit not given)) [11]: 0.08 | IFNγ-producing T cells, intracellular cytokine staining (frequency (unit not given)) [12]: 0.09 | IFNγ-producing T cells, intracellular cytokine staining (frequency (unit not given)) [13]: 0.18

splenocytes of C57BL mice immunised with DNA encoding polyprotein HCV 530 (NS5B-Core-NS3-NS4B) (cells without a defined receptor)
IFNγ-producing T cells, intracellular cytokine staining (frequency (unit not given)) [5]: 0.15 | IFNγ-producing T cells, intracellular cytokine staining (frequency (unit not given)) [6]: 0.21 | IFNγ-producing T cells, intracellular cytokine staining (% of CD8+ cells (unit from paragraph 162)) [7]: 4.89 | IFNγ-producing T cells, intracellular cytokine staining (frequency (unit not given)) [8]: 0.1 | IFNγ-producing T cells, intracellular cytokine staining (frequency (unit not given)) [9]: 0.37 | IFNγ-producing T cells, intracellular cytokine staining (frequency (unit not given)) [10]: 0.17 | IFNγ-producing T cells, intracellular cytokine staining (frequency (unit not given)) [11]: 0.12 | IFNγ-producing T cells, intracellular cytokine staining (frequency (unit not given)) [12]: 0.06 | IFNγ-producing T cells, intracellular cytokine staining (frequency (unit not given)) [13]: 0.7

splenocytes of mice immunised with DNA encoding NS4B as single antigen (cells without a defined receptor)
IFNγ-producing T cells, intracellular cytokine staining (frequency (unit not given)) [8]: 0.18 | IFNγ-producing T cells, intracellular cytokine staining (frequency (unit not given)) [9]: 2.04 | IFNγ-producing T cells, intracellular cytokine staining (frequency (unit not given)) [10]: 0.17

splenocytes of mice immunised with DNA encoding NS5B as single antigen (cells without a defined receptor)
IFNγ-producing T cells, intracellular cytokine staining (frequency (unit not given)) [11]: 1.67 | IFNγ-producing T cells, intracellular cytokine staining (frequency (unit not given)) [12]: 0.1 | IFNγ-producing T cells, intracellular cytokine staining (frequency (unit not given)) [13]: 0.26
